Results taken from patent US7355015B1, “Matriptase, a serine protease and its applications” (Georgetown University School of Medicine, priority 1999, dated 2008).
Residue numbers refer to the chain shown, from its start. One block for each molecule: values may come before it.

How the values were obtained:
[1] = biological target: human plasmin (Homo sapiens, UniProt P00747); settings: cited from earlier work
[2] = biological target: human tissue kallikrein (Homo sapiens, UniProt P06870); settings: cited from earlier work
Chain of human tissue kallikrein (P06870 25-262): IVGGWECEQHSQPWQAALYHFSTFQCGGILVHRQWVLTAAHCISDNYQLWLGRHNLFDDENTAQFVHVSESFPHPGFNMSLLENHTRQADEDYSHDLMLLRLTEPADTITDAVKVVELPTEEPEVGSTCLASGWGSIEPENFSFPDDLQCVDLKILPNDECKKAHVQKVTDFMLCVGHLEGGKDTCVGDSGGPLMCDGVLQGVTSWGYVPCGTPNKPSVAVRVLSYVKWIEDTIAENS

[3] = biological target: human plasma kallikrein (Homo sapiens, UniProt P03952); settings: cited from earlier work
Chain of human plasma kallikrein (P03952 20-638): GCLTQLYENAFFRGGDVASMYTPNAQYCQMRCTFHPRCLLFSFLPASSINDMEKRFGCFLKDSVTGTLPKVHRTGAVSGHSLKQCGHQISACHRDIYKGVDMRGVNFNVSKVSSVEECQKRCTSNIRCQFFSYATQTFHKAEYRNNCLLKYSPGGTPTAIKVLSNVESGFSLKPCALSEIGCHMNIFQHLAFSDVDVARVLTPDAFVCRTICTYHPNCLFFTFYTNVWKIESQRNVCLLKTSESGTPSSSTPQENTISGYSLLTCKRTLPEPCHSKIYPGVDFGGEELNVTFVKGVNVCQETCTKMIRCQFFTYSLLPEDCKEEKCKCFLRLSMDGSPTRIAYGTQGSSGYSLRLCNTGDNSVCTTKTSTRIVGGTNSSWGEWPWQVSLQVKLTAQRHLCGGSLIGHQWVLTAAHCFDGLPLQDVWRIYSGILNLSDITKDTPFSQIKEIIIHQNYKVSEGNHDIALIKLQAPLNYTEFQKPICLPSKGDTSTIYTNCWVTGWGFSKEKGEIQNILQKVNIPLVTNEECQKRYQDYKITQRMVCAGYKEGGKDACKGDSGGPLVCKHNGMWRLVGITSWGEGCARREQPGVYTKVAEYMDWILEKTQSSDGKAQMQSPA

[4] = biological target: human factor XIa (Homo sapiens, UniProt P03951); settings: cited from earlier work
Chain of human factor XIa (P03951 388-625 limits assumed): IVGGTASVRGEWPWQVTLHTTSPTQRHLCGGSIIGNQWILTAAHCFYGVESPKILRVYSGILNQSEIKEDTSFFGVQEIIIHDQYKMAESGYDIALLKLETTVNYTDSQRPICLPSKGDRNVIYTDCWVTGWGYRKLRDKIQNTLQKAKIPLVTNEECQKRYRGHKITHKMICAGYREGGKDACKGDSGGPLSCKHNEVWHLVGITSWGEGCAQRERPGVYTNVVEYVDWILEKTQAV
Chain of human factor XIa (P03951 19-387 partner limits assumed): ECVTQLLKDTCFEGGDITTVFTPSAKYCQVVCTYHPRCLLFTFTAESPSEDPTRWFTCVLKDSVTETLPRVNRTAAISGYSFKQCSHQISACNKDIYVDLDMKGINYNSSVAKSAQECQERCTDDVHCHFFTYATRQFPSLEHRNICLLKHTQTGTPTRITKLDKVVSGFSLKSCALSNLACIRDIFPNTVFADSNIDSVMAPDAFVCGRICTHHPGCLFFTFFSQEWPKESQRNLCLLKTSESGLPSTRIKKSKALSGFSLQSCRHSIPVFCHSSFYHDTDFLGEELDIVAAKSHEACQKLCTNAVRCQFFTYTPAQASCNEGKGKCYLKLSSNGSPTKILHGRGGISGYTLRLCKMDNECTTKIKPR

[5] = biological target: T1, 40-kDa fragment of hepatocyte growth factor activator inhibitor-1 (HAI-1)
T1 chain: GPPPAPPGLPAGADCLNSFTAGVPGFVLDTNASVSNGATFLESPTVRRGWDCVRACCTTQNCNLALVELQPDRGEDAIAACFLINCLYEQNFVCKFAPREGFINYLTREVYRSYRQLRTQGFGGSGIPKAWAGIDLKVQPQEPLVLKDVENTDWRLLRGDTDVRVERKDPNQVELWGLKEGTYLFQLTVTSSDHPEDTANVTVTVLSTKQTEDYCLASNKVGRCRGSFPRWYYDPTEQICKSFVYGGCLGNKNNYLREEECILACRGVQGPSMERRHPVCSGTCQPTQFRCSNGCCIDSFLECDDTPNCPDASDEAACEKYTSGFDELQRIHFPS

[6] = biological target: T2, soybean-derived Bowman-Birk inhibitor (BBI), P01055
T2 chain: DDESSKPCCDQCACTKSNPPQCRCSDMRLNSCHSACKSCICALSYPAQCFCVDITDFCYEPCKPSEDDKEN

[7] = biological target: T3, matriptase (Homo sapiens, UniProt Q9Y5Y6); assay: Fluorescent substrate assay and zymography with BBI; assay type: biochemical
T3 sequence (Q9Y5Y6 1-855): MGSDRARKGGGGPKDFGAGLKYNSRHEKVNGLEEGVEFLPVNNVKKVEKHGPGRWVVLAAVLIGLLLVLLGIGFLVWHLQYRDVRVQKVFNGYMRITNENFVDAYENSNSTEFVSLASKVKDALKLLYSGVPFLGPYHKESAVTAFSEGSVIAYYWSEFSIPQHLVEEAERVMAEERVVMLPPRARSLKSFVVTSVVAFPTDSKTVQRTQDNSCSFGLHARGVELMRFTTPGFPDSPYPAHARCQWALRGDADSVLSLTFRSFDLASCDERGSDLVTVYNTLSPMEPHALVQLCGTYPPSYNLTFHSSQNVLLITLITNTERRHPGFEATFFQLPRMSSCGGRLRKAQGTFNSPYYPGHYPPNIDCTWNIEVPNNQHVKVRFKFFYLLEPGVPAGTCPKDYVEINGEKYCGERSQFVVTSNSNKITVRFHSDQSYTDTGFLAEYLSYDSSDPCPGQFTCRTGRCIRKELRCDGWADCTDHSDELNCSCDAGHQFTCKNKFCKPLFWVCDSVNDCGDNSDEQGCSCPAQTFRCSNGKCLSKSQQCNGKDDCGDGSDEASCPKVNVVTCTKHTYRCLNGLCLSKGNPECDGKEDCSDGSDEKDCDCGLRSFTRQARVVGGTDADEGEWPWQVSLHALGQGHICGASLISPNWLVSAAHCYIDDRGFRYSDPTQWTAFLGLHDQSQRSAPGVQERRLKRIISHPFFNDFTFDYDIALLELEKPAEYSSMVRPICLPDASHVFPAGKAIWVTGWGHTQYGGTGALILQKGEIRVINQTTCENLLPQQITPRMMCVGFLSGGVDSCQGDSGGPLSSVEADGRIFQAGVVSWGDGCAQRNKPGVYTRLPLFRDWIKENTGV
Procedure: A concentrate of BBI, BBIC, can be administered in dosage sufficient to obtain a blood level of 0.001 to 1 mM concentration of BBI in the blood as a means of inhibiting tumor initiation in a susceptible to breast cancer. As indicated by presence of matriptase in nipple aspirate or in tissue from biopsy, including tissue from needle biopsy. […] BBI interacts directly with the serine protease active site on matriptase.

[8] = biological target: T4, matriptase (Homo sapiens, UniProt Q9Y5Y6); assay: Cleavage rate assay with fluorescent substrate BOC-Gln-Ala-Arg-AMC after matriptase/HAI-1 complex formation; assay type: biochemical; settings: pH 8.5
T4 construct: from tissue; host or cells: human milk
T4 sequence (Q9Y5Y6 615-855 limits assumed): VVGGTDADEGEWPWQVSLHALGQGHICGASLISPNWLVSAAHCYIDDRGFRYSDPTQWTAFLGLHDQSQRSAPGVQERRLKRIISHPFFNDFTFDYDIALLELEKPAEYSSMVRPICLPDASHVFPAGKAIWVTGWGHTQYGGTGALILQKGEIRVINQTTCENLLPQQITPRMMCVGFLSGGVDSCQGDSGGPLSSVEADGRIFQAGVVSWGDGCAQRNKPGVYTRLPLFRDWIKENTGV
T4 sequence (Q9Y5Y6 190-614 partner limits assumed): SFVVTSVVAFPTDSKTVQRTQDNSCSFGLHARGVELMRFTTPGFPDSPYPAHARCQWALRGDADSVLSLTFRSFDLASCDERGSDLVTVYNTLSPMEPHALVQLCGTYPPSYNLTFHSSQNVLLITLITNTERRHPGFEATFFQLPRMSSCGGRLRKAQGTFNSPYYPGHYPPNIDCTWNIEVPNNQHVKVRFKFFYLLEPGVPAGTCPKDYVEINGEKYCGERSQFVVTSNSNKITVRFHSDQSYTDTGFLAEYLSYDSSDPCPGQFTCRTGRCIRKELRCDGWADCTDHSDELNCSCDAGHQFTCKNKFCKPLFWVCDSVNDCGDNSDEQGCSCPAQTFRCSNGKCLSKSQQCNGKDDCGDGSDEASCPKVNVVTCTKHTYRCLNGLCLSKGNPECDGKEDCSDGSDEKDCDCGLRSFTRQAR
Procedure: (§1) Matriptase and HAI-1 were isolated from human milk by anti-matriptase mAb 21-9 immunoaffinity chromatography, as described in Example 1, and were maintained in an uncomplexed status in elution buffer, 0.1 M glycine, pH 2.4. This preparation was brought to pH 8.5, incubated at 37° C. for 0, 5, 30 and 60 min., and subjected to immunoblotting using anti-matriptase mAb 21-9 (panel A), gelatin zymography (panel B), and to a cleavage rate assay using the synthetic, fluorescent substrate, BOC—Gin—Ala—Agr-7-amido 4-methylcoumarin (panel C). […] A milk-derived, matriptase-related 110-kDa protease (as indicated in panel A), which was not a complex of matriptase and HAI-1, and whose migration on SDS gel was reduced after boiling (see Example 1).
Proteolytic activity of matriptase determined by cleavage of trypsin substrate, BOC—Gln—Ala—Arg—AMC: A variety of synthetic, fluorescent protease substrates with arginine or lysine as P1 sites can be cleaved by matriptase, as described in Example 2. Among these substrates, t-butyloxycarbonyl (BOC)—Gln—Ala—Arg-7-amino-4-methylcoumarin (Sigma; St. Louis, Mo.) is likely to be the best one. Using this substrate, matriptase was assayed in 20 mM Tris buffer pH 8.5 at 25° C. in a total volume of 200 μl. The final substrate concentration was 0.1 mM. The rate of cleavage was determined with a fluorescence spectrophotometer (Hitachi, F-4500). […]

[9] = biological target: T4, matriptase; assay: Gelatin zymography of matriptase/HAI-1 preparation; assay type: biochemical
Procedure: as §1
Gelatin zymography: Gelatin zymography was carried out as previously described with some modifications (Brown et al., Biochem J. 101: 214-228 (1966)). Gelatin (1 mg/ml), as a substrate, was copolymerized with regular SDS-polyacrylamide gel. Electrophoresis was performed at a constant current of 15 mA. The gelatin gels were washed 3 times with PBS containing 2% Triton X-100 and incubated in PBS at 37° C. overnight.
Inhibition of matriptase activity by the interaction with HAI-1: HAI-1, a protein containing contains two protease inhibitory domains (Kunitz domains), was initially identified as a binding protein of matriptase. […]

[10] = after 30 and 60 min incubation at 37° C.

Chain of human plasmin (P00747 581-810 limits assumed): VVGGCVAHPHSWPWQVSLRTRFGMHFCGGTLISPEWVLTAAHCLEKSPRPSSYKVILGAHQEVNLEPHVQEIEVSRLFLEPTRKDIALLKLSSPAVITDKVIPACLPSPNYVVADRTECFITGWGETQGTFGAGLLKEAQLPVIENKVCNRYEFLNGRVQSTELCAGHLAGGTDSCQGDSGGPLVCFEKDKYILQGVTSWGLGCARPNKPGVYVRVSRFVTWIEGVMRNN
Chain of human plasmin (P00747 97-580 partner limits assumed): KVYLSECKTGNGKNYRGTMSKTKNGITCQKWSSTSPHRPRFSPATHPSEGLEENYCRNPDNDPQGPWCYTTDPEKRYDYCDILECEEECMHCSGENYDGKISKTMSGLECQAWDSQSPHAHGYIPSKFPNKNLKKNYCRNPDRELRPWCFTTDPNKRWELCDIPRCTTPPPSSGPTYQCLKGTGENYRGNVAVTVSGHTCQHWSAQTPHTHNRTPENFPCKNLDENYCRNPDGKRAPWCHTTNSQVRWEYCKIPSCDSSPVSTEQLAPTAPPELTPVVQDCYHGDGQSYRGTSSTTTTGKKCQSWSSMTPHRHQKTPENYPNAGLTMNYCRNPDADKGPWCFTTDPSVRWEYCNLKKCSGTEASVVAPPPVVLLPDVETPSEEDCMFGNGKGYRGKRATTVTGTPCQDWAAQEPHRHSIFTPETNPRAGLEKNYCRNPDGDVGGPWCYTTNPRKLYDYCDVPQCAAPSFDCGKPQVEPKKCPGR

B1: placenta bikunin: second Kunitz-type inhibitor with two Kunitz domains, isolated from human placenta (protein, UniProt O43291 28-252, looked up)
Kunitz-type protease …: ADRERSIHDFCLVSKVVGRCRASMPRWWYNVTDGSCQLFVYGGCDGNSNNYLTKEECLKKCATVTENATGDLATSRNAADSSVPSAPRRQDSEDHSSDMFNYEEYCTANAVTGPCRASFPRWYFDVERNSCNNFIYGGCRGNKNSYRSEEACMLRCFRQQENPPLPLGSKVVVLAGLFVMVLILFLGASMVYLIRVARRNQERALRTVWSSGDDKEQLVKNTYVL
- inhibition of human plasmin [1]: strong inhibition
- inhibition of human tissue kallikrein [2]: strong inhibition
- inhibition of human plasma kallikrein [3]: strong inhibition
- inhibition of human factor XIa [4]: strong inhibition

B2: two-chain (active) form of matriptase, milk-derived, released from its complexes (protein)
chain 1: T4 sequence (Q9Y5Y6 190-614 partner limits assumed) with G202R, V203R, P204A, A205C
chain 2: T4 sequence (Q9Y5Y6 615-855 limits assumed)
- cleavage rate of the fluorescent substrate BOC-Gln-Ala-Arg-7-amido-4-methylcoumarin after 5 min at 37° C., pH 8.5 [5]: the cleavage rate for fluorescent substrate was significantly reduced, down to 18%
- gelatin zymography and cleavage of fluorescent substrate after 30 and 60 min at 37° C., pH 8.5 [5]: negligible activity was observed by gelatin zymography (panel B) and by cleavage of fluorescent substrate
- rate of cleavage of a synthetic, fluorescent substrate [5]: the rate of cleavage of a synthetic, fluorescent substrate by matriptase was decreased following complex formation
- matriptase activity by fluorescent substrate assay and zymography [6]: BBI can decrease matriptase activity in a dose-dependent manner

B3: BBI: soybean-derived Bowman-Birk inhibitor of serine proteases (protein)
chain: T2 chain
- effect on matriptase activity [7]: decrease matriptase activity in a dose-dependent manner

- activity by cleavage of fluorescent substrate [8, 10]: negligible activity
- cleavage rate for fluorescent substrate, remaining ([8]; after 5 min incubation at 37° C.): 18%
- gelatinolytic activity by gelatin zymography [9, 10]: negligible activity
- gelatinolytic activity of complexed matriptase ([9]; after 5 min incubation at 37° C., versus uncomplexed matriptase): much weaker activity
B4: HAI-1: Kunitz-type serine protease inhibitor, cognate inhibitor of matriptase, co-purified from human milk (protein, UniProt O43278 36-529, looked up)
Kunitz-type protease …: GPPPAPPGLPAGADCLNSFTAGVPGFVLDTNASVSNGATFLESPTVRRGWDCVRACCTTQNCNLALVELQPDRGEDAIAACFLINCLYEQNFVCKFAPREGFINYLTREVYRSYRQLRTQGFGGSGIPKAWAGIDLKVQPQEPLVLKDVENTDWRLLRGDTDVRVERKDPNQVELWGLKEGTYLFQLTVTSSDHPEDTANVTVTVLSTKQTEDYCLASNKVGRCRGSFPRWYYDPTEQICKSFVYGGCLGNKNNYLREEECILACRGVQGGPLRGSSGAQATFPQGPSMERRHPVCSGTCQPTQFRCSNGCCIDSFLECDDTPNCPDASDEAACEKYTSGFDELQRIHFPSDKGHCVDLPDTGLCKESIPRWYYNPFSEHCARFTYGGCYGNKNNFEEEQQCLESCRGISKKDVFGLRREIPIPSTGSVEMAVAVFLVICIVVVVAILGYCFFKNQRKDFHGHHHHPPPTPASSTVSTTEDTEHLVYNHTTRPL
